Source: the supplement of paper PMC10126150
± gives the standard deviation of the averaged measurements.

System: ATP
Experiment: switch fluorescence ratio, 500 uM ATP over buffer (Cy3 cluster intensity, sum of 5 cycles each) (fold (ratio)); higher = stronger signal-on switching upon ATP binding; sequences stand for … in TCGTCGGCAGCGTCAGATGTGTATAAGAGACAGTTTTTTTTTTTTTTTTTTTTTTTTT…TC
Settings: aptamer strand: ATP DNA aptamer (quencher-CACCTGGGGGAGTATTGCGGAGGAAGG + anchor), 100 nM annealed; ATP concentration: 500 uM
How it was run: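 The quencher-labelled ATP aptamer, at 100 nM, was annealed to Cy3-labelled switching-strand clusters on a modified Illumina MiSeq flow-cell. The clusters were imaged in selection buffer, then after 15 min with 500 uM ATP at 22 °C, and this buffer/ATP cycle ran five times with NaOH stripping and re-annealing between runs. Per-cluster fluorescence ratios, summed target-cycle over summed buffer-cycle Cy3 intensity, were averaged per switch-domain sequence. Clusters outside 100-1000 RFU were excluded.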
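Further: ATP exposure 15 min at 22 °C before imaging.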

Row | Sequence | switch fluorescence ratio
1 | ACCTGGGTAC | 1.03 ± 0.055
2 | ACCTGGTGTT | 1.23 ± 0.39
3 | ACCTGTGATC | 1.02 ± 0.026
4 | ACCTGTTTGT | 1.01 ± 0.017
5 | ACCTTAAGGG | 1.01 ± 0.015
6 | ACCTTAGGCC | 1.07 ± 0.015
7 | ACCTTCGGGT | 1.03 ± 0.028
8 | ACCTTGTATA | 0.971 ± 0.022
9 | ACCTTTAAGC | 1.106 ± 0.01
10 | ACCTTTTCTT | 1 ± 0.011
11 | ACCTTTTGTG | 0.9903 ± 0.0046
12 | ACCTTTTTTT | 1.17 ± 0.11
13 | ACGAAATTGG | 1.04 ± 0.068
14 | ACGAACAGCG | 1.153 ± 0.004
15 | ACGAATGGTG | 1.02 ± 0.031
16 | ACGAATTGTT | 0.9848 ± 0.0026
17 | ACGACATTTT | 1.084 ± 0.0048
18 | ACGACGTGGG | 1 ± 0.024
19 | ACGAGAAGGG | 1.02 ± 0.043
20 | ACGAGAGATT | 1.42 ± 0.48
21 | ACGAGATTAT | 1.02 ± 0.014
22 | ACGAGGCCGG | 0.952 ± 0.077
23 | ACGAGGCTCA | 1.062 ± 0.0068
24 | ACGAGGGCCA | 1.004 ± 0.0086
25 | ACGATAGGCC | 1.03 ± 0.028
26 | ACGATCAGGA | 1.026 ± 0.0029

Row | Sequence | switch fluorescence ratio
27 | ACGATGACAC | 1.289 ± 0.0018
28 | ACGATGGGAG | 1.02 ± 0.021
29 | ACGATTAGGG | 0.996 ± 0.08
30 | ACGATTGTGG | 0.983 ± 0.014
31 | ACGCAGGACA | 1.35 ± 0.031
32 | ACGCAGGGGG | 0.989 ± 0.034
33 | ACGCCACTGT | 1.71 ± 0.038
34 | ACGCCATAGT | 1.25 ± 0.059
35 | ACGCCCTCCC | 2.02 ± 1.2
36 | ACGCCTTAGG | 1.05 ± 0.038
37 | ACGCGATTTT | 1.35 ± 0.46
38 | ACGCGGGGGG | 1.02 ± 0.029
39 | ACGCGGTCGG | 1.08 ± 0.044
40 | ACGCGTCAGC | 1.01 ± 0.021
41 | ACGCGTGCGT | 0.988 ± 0.016
42 | ACGCTAGCCT | 1.18 ± 0.032
43 | ACGCTGGCGA | 1.03 ± 0.021
44 | ACGCTTTAGT | 1.01 ± 0.036
45 | ACGCTTTTGG | 1.03 ± 0.023
46 | ACGGAAATTT | 1.021 ± 0.0052
47 | ACGGAATCCT | 1.19 ± 0.018
48 | ACGGAATGTT | 1.0819 ± 0.00046
49 | ACGGACAATC | 1.47 ± 0.099
50 | ACGGACAGTT | 1.13 ± 0.029
51 | ACGGACATGG | 1.08 ± 0.017
52 | ACGGACTGGT | 1.18 ± 0.014

Row | Sequence | switch fluorescence ratio
53 | ACGGACTTTG | 0.941 ± 0.063
54 | ACGGAGAGGC | 1.14 ± 0.22
55 | ACGGAGGATT | 1.04 ± 0.04
56 | ACGGAGGTGG | 0.992 ± 0.033
57 | ACGGATATTA | 1.01 ± 0.0031
58 | ACGGATGGCT | 0.984 ± 0.023
59 | ACGGATTGTG | 0.971 ± 0.0099
60 | ACGGCCTAAA | 0.98 ± 0.043
61 | ACGGCGCTGG | 1.02 ± 0.017
62 | ACGGCGTCGC | 1.02 ± 0.026
63 | ACGGCTAAGG | 1.06 ± 0.029
64 | ACGGCTGGAA | 0.969 ± 0.015
65 | ACGGCTGTCA | 0.999 ± 0.025
66 | ACGGCTGTTC | 1.01 ± 0.027
67 | ACGGGAAGGG | 1.05 ± 0.03
68 | ACGGGAGACC | 1.02 ± 0.018
69 | ACGGGATCAT | 1.07 ± 0.054
70 | ACGGGCAAGC | 1.72 ± 0.23
71 | ACGGGCGGGC | 1.29 ± 0.032
72 | ACGGGCTAAC | 1.09 ± 0.14
73 | ACGGGCTTTA | 1.03 ± 0.026
74 | ACGGGCTTTT | 1.01 ± 0.012
75 | ACGGGGAGGC | 1.07 ± 0.028
76 | ACGGGGAGTC | 1.039 ± 0.0052
77 | ACGGGGATTG | 1.02 ± 0.042
78 | ACGGGGCATC | 1.07 ± 0.013

Row | Sequence | switch fluorescence ratio
79 | ACGGGGCCGG | 1.06 ± 0.032
80 | ACGGGGCTAA | 1.12 ± 0.15
81 | ACGGGGGCGT | 1.05 ± 0.068
82 | ACGGGGGTAA | 1.18 ± 0.3
83 | ACGGGGGTG | 1.04 ± 0.074
84 | ACGGGTGACC | 1.03 ± 0.032
85 | ACGGGTGTCC | 0.995 ± 0.066
86 | ACGGGTTGTG | 0.96 ± 0.037
87 | ACGGGTTGTT | 1.02 ± 0.021
88 | ACGGGTTTTT | 0.999 ± 0.015
89 | ACGGTACTGT | 1.4 ± 0.045
90 | ACGGTATAGT | 1.1 ± 0.017
91 | ACGGTATTTT | 1.09 ± 0.052
92 | ACGGTCATAT | 1.08 ± 0.027
93 | ACGGTCTGGA | 1 ± 0.041
94 | ACGGTGATAT | 1.03 ± 0.028
95 | ACGGTGCTTG | 0.99 ± 0.015
96 | ACGGTGGACT | 1 ± 0.035
97 | ACGGTTAGGG | 1.05 ± 0.043
98 | ACGGTTTAAT | 1.04 ± 0.029
99 | ACGGTTTATG | 1.01 ± 0.058
100 | ACGTAACGCT | 1.3 ± 0.052
101 | ACGTAATGG | 1.57 ± 0.059
102 | ACGTAGCATG | 2.46 ± 0.45
103 | ACGTAGCTTT | 1.37 ± 0.36
104 | ACGTAGGGGT | 1.21 ± 0.27

Row | Sequence | switch fluorescence ratio
105 | ACGTAGGGTT | 1.08 ± 0.012
106 | ACGTAGTAAC | 1.03 ± 0.022
107 | ACGTCAAGGT | 1.0871 ± 0.00061
108 | ACGTCAGGGT | 1.0361 ± 0.00046
109 | ACGTCTACTC | 1.37 ± 0.1
110 | ACGTGACACC | 1.35 ± 0.063
111 | ACGTGCTTTT | 0.999 ± 0.018
112 | ACGTGGAGGA | 1.054 ± 0.0031
113 | ACGTGGGGGG | 1.04 ± 0.082
114 | ACGTGGTGTT | 1.003 ± 0.0035
115 | ACGTGTAGGC | 1.01 ± 0.04
116 | ACGTTAAAAT | 1.05 ± 0.021
117 | ACGTTACTAC | 1.52 ± 0.03
118 | ACGTTATTGG | 1.14 ± 0.02
119 | ACGTTGAAGT | 1.01 ± 0.019
120 | ACGTTGAATG | 1.01 ± 0.011
121 | ACGTTGGATT | 1.01 ± 0.014
122 | ACGTTGGGCA | 0.99 ± 0.014
123 | ACGTTGGTGC | 1.06 ± 0.029
124 | ACGTTTAACT | 1.25 ± 0.015
125 | ACGTTTTACA | 1.183 ± 0.0076
126 | ACGTTTTTGC | 1.02 ± 0.044
127 | ACTAAAAATT | 1.05 ± 0.04
128 | ACTAAACTTG | 1.014 ± 0.0022
129 | ACTAAATAAA | 1.14 ± 0.23
130 | ACTAAGAATT | 1.02 ± 0.013

Row | Sequence | switch fluorescence ratio
131 | ACTAATAGTC | 1.02 ± 0.038
132 | ACTAATGTTT | 0.994 ± 0.036
133 | ACTAATTAGC | 1.01 ± 0.031
134 | ACTACACTTT | 1.27 ± 0.018
135 | ACTACATTGG | 1.033 ± 0.0065
136 | ACTACCCCAA | 1.94 ± 0.14
137 | ACTACCCTCG | 1.18 ± 0.065
138 | ACTACGTACA | 1.68 ± 0.024
139 | ACTAGAGGCA | 1 ± 0.024
140 | ACTAGAGGTT | 1.06 ± 0.039
141 | ACTAGATTCT | 0.979 ± 0.013
142 | ACTAGCTACT | 1.138 ± 0.0094
143 | ACTAGCTGTA | 0.982 ± 0.034
144 | ACTAGGATTC | 0.986 ± 0.0028
145 | ACTAGGTGTG | 1.04 ± 0.013
146 | ACTATGATCA | 1.02 ± 0.014
147 | ACTATTAAT | 1.024 ± 0.0063
148 | ACTATTGCCA | 1.04 ± 0.017
149 | ACTATTGGGT | 0.988 ± 0.015
150 | ACTATTTGCG | 0.991 ± 0.042
151 | ACTATTTTTT | 1 ± 0.029
152 | ACTCAAAACG | 1.11 ± 0.09
153 | ACTCAAGGCT | 1.07 ± 0.049
